Measured values as given in PMC5150656, “Detecting stoichiometry of macromolecular complexes in live cells using FRET” (Nature Communications, 2016).

B1: EYFP tagged myosin Va five tandem IQ domain truncation (IQ2-6) (domain or fragment)
chain: MQRAAITVQRYVRGYQARCYAKFLRRTKAATTIQKYWRMYVVRRRYKIRRAATIVIQSYLRGYLTRNRYRKILREYKAVIIQKRVRGWLARTHYKRTMKAIVYLQCCFRRMMAKRELKKLKIEARSVERYKK
notes: mouse myosin Va neck domain, five tandem IQ domains IQ2-6, residues M789-K920 (Uniprot Q99104); A three amino-acid linker 'AAA' joins EYFP with the peptide; source: HEK293, transiently transfected, in live cells
B2: EYFP tagged myosin Va three tandem IQ domain peptide (IQ4-6) (domain or fragment)
chain: RRAATIVIQSYLRGYLTRNRYRKILREYKAVIIQKRVRGWLARTHYKRTMKAIVYLQCCFRRMMAKRELKKLKIEARSVERYKK
notes: mouse myosin Va neck domain, three tandem IQ domains IQ4-6, residues R837-K920 (Uniprot Q99104); A three amino-acid linker 'AAA' joins EYFP with the peptide; source: HEK293, transiently transfected, in live cells
B3: EYFP-tagged full length myosin Va neck domain peptide containing six IQ domains (IQ1-6) (domain or fragment)
chain: LRAACIRIQKTIRGWLLRKRYLCMQRAAITVQRYVRGYQARCYAKFLRRTKAATTIQKYWRMYVVRRRYKIRRAATIVIQSYLRGYLTRNRYRKILREYKAVIIQKRVRGWLARTHYKRTMKAIVYLQCCFRRMMAKRELKKLKIEARSVERYKK
notes: mouse myosin Va full length neck domain, six tandem IQ domains IQ1-6, residues L766-K920 (Uniprot Q99104); A three amino-acid linker 'AAA' joins EYFP with the peptide; source: HEK293, transiently transfected, in live cells
B4: EYFP tagged myosin Va two tandem IQ domain peptide (IQ5-6) (domain or fragment)
chain: REYKAVIIQKRVRGWLARTHYKRTMKAIVYLQCCFRRMMAKRELKKLKIEARSVERYKK
notes: mouse myosin Va neck domain, two tandem IQ domains IQ5-6, residues R862-K920 (Uniprot Q99104); A three amino-acid linker 'AAA' joins EYFP with the peptide; source: HEK293, transiently transfected, in live cells
B5: EYFP tagged myosin Va peptide containing a single IQ domain (IQ6) (domain or fragment)
chain: TMKAIVYLQCCFRRMMAKRELKKLKIEARSVERYKK
notes: mouse myosin Va neck domain, single IQ domain IQ6, residues T885-K920 (Uniprot Q99104); A three amino-acid linker 'AAA' joins EYFP with the peptide; also called EYFP-tagged IQ6 peptide; source: HEK293, transiently transfected, in live cells
B6: EYFP tagged myosin Va four tandem IQ domain peptide (IQ3-6) (domain or fragment)
chain: RTKAATTIQKYWRMYVVRRRYKIRRAATIVIQSYLRGYLTRNRYRKILREYKAVIIQKRVRGWLARTHYKRTMKAIVYLQCCFRRMMAKRELKKLKIEARSVERYKK
notes: mouse myosin Va neck domain, four tandem IQ domains IQ3-6, residues R814-K920 (Uniprot Q99104); A three amino-acid linker 'AAA' joins EYFP with the peptide; source: HEK293, transiently transfected, in live cells

The binders below were run against T1, ECFP-tagged calmodulin (CaM) (UniProt P0DP23 1-149) (assay: FRET or BRET; FRET 2-hybrid (3^3-FRET and E-FRET) in single live HEK293 cells, room temperature, basal (resting) Ca2+: Tyrode's bath with 2 mM Ca2+; relative (effective) dissociation constants Kd,EFF; stoichiometry ratio ν = EA,max/ED,max). Conditions: partners not purified.
T1 construct: calmodulin (CaM); also called ECFP-CaM; ECFP fused CaM; source: HEK293, transiently transfected, in live cells

Kd, ~25 nM:
B1, B2, B3, B4, B5, B6
